Results taken from paper PMC5789076, “Molecular basis for the specific and multivariant recognitions of RNA substrates by human hnRNP A2/B1”.

Experiments:
Assay in all cases: ITC; ITC: 10 mM HEPES pH 8.0, 50 mM KCl, 1 mM EDTA, 1 mM BME, 25 C (protein into RNA); EMSA: 10 mM HEPES pH 8.0, 50 mM KCl, 1 mM EDTA, 5 mM BME, room temperature 30
hnRNP A2/B1 RRM1-RRM2 = hnRNP A2/B1 RRM1-RRM2 (human, UniProt P22626 12-195); conditions: protein: recombinant; tags: N-terminal His6-SUMO removed by Ulp1; single strand
[1] = target: hnRNP A2/B1 RRMs + RGG box (human, UniProt P22626 1-249); conditions: protein: recombinant; tags: N-terminal His6-SUMO removed by Ulp1; single strand
hnRNP A2/B1 full-length = hnRNP A2/B1 full-length (human, UniProt P22626 1-353); conditions: protein: recombinant; tags: prepared with His6(-SUMO) tag or untagged; single strand
[2] = target: hnRNP A2/B1 (12-195) E183A (human, UniProt P22626 12-195, E183A); conditions: protein: recombinant; tags: His6-SUMO removed; single strand
[3] = target: hnRNP A2/B1 (12-195) D49A (human, UniProt P22626 12-195, D49A); conditions: protein: recombinant; tags: His6-SUMO removed; single strand
[4] = target: hnRNP A2/B1 (12-195) K113A (human, UniProt P22626 12-195, K113A); conditions: protein: recombinant; tags: His6-SUMO removed; single strand
[5] = target: hnRNP A2/B1 (12-195) F66A (human, UniProt P22626 12-195, F66A); conditions: protein: recombinant; tags: His6-SUMO removed; single strand
[6] = target: hnRNP A2/B1 (12-195) F157A (human, UniProt P22626 12-195, F157A); conditions: protein: recombinant; tags: His6-SUMO removed; single strand
[7] = target: hnRNP A2/B1 (12-195) E92A (human, UniProt P22626 12-195, E92A); conditions: protein: recombinant; tags: His6-SUMO removed; single strand
[8] = target: hnRNP A2/B1 (12-195) K120A (human, UniProt P22626 12-195, K120A); conditions: protein: recombinant; tags: His6-SUMO removed; single strand
[9] = target: hnRNP A2/B1 (12-195) Q19A (human, UniProt P22626 12-195, Q19A); conditions: protein: recombinant; tags: His6-SUMO removed; single strand
[10] = target: hnRNP A2/B1 (12-195) F24A (human, UniProt P22626 12-195, F24A); conditions: protein: recombinant; tags: His6-SUMO removed; single strand
[11] = target: hnRNP A2/B1 (12-195) H108A (human, UniProt P22626 12-195, H108A); conditions: protein: recombinant; tags: His6-SUMO removed; single strand
[12] = target: hnRNP A2/B1 (12-195) F115A (human, UniProt P22626 12-195, F115A); conditions: protein: recombinant; tags: His6-SUMO removed; single strand
hnRNP A2/B1 (12-195) F115A, sequence (P22626 12-195 F115A): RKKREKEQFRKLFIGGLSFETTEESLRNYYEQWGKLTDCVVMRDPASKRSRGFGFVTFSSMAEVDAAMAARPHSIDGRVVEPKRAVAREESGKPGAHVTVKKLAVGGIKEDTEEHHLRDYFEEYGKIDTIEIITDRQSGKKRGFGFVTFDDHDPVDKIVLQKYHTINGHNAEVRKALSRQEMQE

hnRNP A2/B1 RRM1-RRM2, sequence (P22626 12-195): as the sequence (P22626 12-195 F115A) above, with A104F counted along it
hnRNP A2/B1 RRMs + RGG box, sequence (P22626 1-249): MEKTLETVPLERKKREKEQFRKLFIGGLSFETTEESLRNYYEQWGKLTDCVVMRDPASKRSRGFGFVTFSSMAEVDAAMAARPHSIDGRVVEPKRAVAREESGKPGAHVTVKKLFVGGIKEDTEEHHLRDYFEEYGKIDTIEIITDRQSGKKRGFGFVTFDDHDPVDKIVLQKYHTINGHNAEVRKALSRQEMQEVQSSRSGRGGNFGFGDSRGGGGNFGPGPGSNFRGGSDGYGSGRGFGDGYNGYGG
hnRNP A2/B1 full-length, sequence (P22626 whole entry): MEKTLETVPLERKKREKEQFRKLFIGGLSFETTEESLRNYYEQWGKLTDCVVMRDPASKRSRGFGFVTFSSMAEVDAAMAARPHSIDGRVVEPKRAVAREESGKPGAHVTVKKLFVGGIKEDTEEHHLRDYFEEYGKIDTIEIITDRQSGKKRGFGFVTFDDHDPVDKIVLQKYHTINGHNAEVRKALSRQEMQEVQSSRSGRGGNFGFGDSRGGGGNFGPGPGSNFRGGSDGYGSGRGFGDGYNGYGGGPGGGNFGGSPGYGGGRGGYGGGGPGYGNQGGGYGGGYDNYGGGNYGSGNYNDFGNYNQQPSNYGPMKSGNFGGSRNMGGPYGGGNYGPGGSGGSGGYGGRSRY
hnRNP A2/B1 (12-195) K113A, sequence (P22626 12-195 K113A): as the sequence (P22626 12-195 F115A) above, with K102A, A104F counted along it
hnRNP A2/B1 (12-195) E92A, sequence (P22626 12-195 E92A): as the sequence (P22626 12-195 F115A) above, with E81A, A104F counted along it
hnRNP A2/B1 (12-195) F24A, sequence (P22626 12-195 F24A): as the sequence (P22626 12-195 F115A) above, with F13A, A104F counted along it
hnRNP A2/B1 (12-195) K120A, sequence (P22626 12-195 K120A): as the sequence (P22626 12-195 F115A) above, with A104F, K109A counted along it
hnRNP A2/B1 (12-195) F157A, sequence (P22626 12-195 F157A): as the sequence (P22626 12-195 F115A) above, with A104F, F146A counted along it
hnRNP A2/B1 (12-195) Q19A, sequence (P22626 12-195 Q19A): as the sequence (P22626 12-195 F115A) above, with Q8A, A104F counted along it
hnRNP A2/B1 (12-195) E183A, sequence (P22626 12-195 E183A): as the sequence (P22626 12-195 F115A) above, with A104F, E172A counted along it
hnRNP A2/B1 (12-195) F66A, sequence (P22626 12-195 F66A): as the sequence (P22626 12-195 F115A) above, with F55A, A104F counted along it
hnRNP A2/B1 (12-195) D49A, sequence (P22626 12-195 D49A): as the sequence (P22626 12-195 F115A) above, with D38A, A104F counted along it
hnRNP A2/B1 (12-195) H108A, sequence (P22626 12-195 H108A): as the sequence (P22626 12-195 F115A) above, with H97A, A104F counted along it

Binder | Kd (hnRNP A2/B1 RRM1-RRM2) | other results
AAGAACUAGC (ssRNA) [G3A] | 244 ± 25.3 nM | –
AAGGACCAGC (ssRNA) [U6C] | 184 ± 16.3 nM | –
AAGGACUAAC (ssRNA) [G8A] | 107 ± 16.2 nM | –
ACGGACUAGC (ssRNA) [A1C] | 662 ± 54.3 nM | –
AAAGACUAGC (ssRNA) [G2A] | 316 ± 37 nM | –
AAGCACUAGC (ssRNA) [G3C] | 952.4 ± 1.14 nM | –
AAGGACUAGC (ssRNA, m6A at position 5) [10mer-m6A] | 1320 ± 143 nM | Kd [1]: 176 ± 25.3 nM; Kd (hnRNP A2/B1 full-length): 172 ± 25.6 nM
AAGGACAAGC (ssRNA) [U6A] | 204 ± 19.9 nM | –
AAGGACUAGC (ssRNA) [10mer] | 115 ± 11.5 nM | Kd [2]: 290 ± 47.8 nM; Kd [3]: 562 ± 69.4 nM; Kd [1]: 26.5 ± 1.8 nM; Kd [4]: 813 ± 1.17 nM; Kd [5]: 763 ± 10.2 nM; Kd [6]: 535 ± 97.1 nM; Kd [7]: 752 ± 85.5 nM; Kd [8]: 413 ± 50.5 nM; Kd (hnRNP A2/B1 full-length): 103 ± 8.93 nM; Kd [9]: 440 ± 42 nM; Kd [10]: 457 ± 35.5 nM; Kd [11]: 167 ± 19.2 nM; Kd [12]: 781 ± 87.7 nM
AAGGACUGGC (ssRNA) [A7G] | 108 ± 11.5 nM | –
AGGACUGC (ssRNA) [8mer] | 276 ± 27.5 nM | Kd [1]: 465 ± 53.2 nM
AGGACUGC (ssRNA, m6A at position 4) [8mer-m6A] | 461 ± 47.4 nM | Kd [1]: 505 ± 44.2 nM
AUGGACUAGC (ssRNA) [A1U] | 532 ± 66.7 nM | –
AAGGACUAUC (ssRNA) [G8U] | 272 ± 30.7 nM | –
AACGACUAGC (ssRNA) [G2C] | 699 ± 88.5 nM | –
AAGGACUACC (ssRNA) [G8C] | 292 ± 44.2 nM | –
AAUGACUAGC (ssRNA) [G2U] | 581 ± 58.1 nM | –
